Data set [1] concerns the target T1, THAP1-N3 deletion mutant (amino acids 1-192) (human, UniProt Q9NVV9 1-192).
T1 construct: Tested as a Gal4-BD or Gal4-AD fusion, as in vitro translated 35S-labelled protein and as an EGFP fusion
T1 sequence: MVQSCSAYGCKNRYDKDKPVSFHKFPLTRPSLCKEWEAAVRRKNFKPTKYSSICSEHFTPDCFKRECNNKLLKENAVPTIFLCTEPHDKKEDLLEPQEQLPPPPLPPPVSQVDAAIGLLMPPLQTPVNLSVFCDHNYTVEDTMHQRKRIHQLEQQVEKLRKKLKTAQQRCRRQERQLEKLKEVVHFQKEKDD
In words: yeast two-hybrid, pGBKT7-THAP1 mutant with pGADT7-Par4DD. The method, then:
(§1) Two-hybrid interaction between THAP1 mutants and Par4DD was tested by cotransformation of AH109 with pGBKT7-THAP1-C1, -C2, -C3, -N1, -N2 or -N3 and pGADT7-Par4DD and selection of transformants by His and Ade double auxotrophy according to manufacturer's instructions ([…] two-hybrid system 3, Clontech).

For data set [2], the target named is T2, THAP1-C3 deletion mutant (amino acids 143-213) (human, UniProt Q9NVV9 143-213).
T2 construct: Tested as a Gal4-BD or Gal4-AD fusion, as in vitro translated 35S-labelled protein and as an EGFP fusion
T2 sequence: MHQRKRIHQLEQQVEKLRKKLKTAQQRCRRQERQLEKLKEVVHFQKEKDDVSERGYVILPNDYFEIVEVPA
Described as above. The protocol: as §1

For data set [3], the target named is T3, THAP1-N2 deletion mutant (amino acids 1-166) (human, UniProt Q9NVV9 1-166).
T3 construct: Tested as a Gal4-BD or Gal4-AD fusion, as in vitro translated 35S-labelled protein and as an EGFP fusion
T3 sequence: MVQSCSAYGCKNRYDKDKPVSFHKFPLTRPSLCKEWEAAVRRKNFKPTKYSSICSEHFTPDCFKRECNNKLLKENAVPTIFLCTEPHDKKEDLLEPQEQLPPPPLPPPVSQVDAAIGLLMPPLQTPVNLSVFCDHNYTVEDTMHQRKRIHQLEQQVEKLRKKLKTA
Described as above. The protocol:
as §1

For data set [4], the target named is T4, THAP1-N1 deletion mutant (amino acids 1-90) (human, UniProt Q9NVV9 1-90).
T4 construct: Tested as a Gal4-BD or Gal4-AD fusion, as in vitro translated 35S-labelled protein and as an EGFP fusion
T4 sequence: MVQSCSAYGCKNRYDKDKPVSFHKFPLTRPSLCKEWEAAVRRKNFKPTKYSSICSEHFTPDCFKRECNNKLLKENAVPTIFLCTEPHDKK
The description is as above. The protocol: as §1

Data set [5] has as its target T5, THAP1-C2 deletion mutant (amino acids 120-213) (human, UniProt Q9NVV9 120-213).
T5 construct: Tested as a Gal4-BD or Gal4-AD fusion, as in vitro translated 35S-labelled protein and as an EGFP fusion
T5 sequence: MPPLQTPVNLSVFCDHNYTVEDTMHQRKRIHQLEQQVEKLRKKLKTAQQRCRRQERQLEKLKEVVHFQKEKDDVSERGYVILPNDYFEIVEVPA
The data set is described as above. The method, then: as §1

Data set [6] has as its target T6, THAP1-C1 deletion mutant (amino acids 90-213) (human, UniProt Q9NVV9 90-213).
T6 construct: Tested as a Gal4-BD or Gal4-AD fusion, as in vitro translated 35S-labelled protein and as an EGFP fusion; also called THAP1ΔTHAP; THAP1?THAP
T6 sequence: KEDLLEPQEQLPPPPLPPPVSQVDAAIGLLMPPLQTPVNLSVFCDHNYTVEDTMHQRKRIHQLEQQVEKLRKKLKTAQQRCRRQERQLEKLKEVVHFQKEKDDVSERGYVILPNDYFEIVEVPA
The description is as above. The method, then:
as §1

Data set [7] has as its target T7, THAP1ΔQRCRR mutant (deletion of residues 168-172) (human, UniProt Q9NVV9 1-213).
T7 construct: Tested as a Gal4-BD fusion (pGBKT7), as in vitro translated protein and as an EGFP fusion; also called THAP1?QRCRR; THAP1?(QRCRR)
T7 sequence: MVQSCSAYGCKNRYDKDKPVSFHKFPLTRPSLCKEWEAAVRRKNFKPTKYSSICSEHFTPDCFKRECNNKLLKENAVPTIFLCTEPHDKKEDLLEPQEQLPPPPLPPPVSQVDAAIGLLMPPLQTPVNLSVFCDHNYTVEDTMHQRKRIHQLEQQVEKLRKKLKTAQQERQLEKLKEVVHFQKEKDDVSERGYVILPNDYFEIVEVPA
In words: yeast two-hybrid. The protocol:
as §1
for mutant THAP1ΔQRCRR. The resulting PCR fragments were digested with EcoRI and BamHI, and cloned in frame downstream of the Gal4 Binding Domain (Gal4-BD) in pGBKT7 two-hybrid vector (Clontech) to generate pGBKT7-THAP1-RR/AA and −Δ(QRCRR), or downstream of the Enhanced Green Fluorescent Protein (EGFP) ORF in pEGFP.C2 vector (Clontech) to generate pEGFP.C2-THAP1-RR/AA and −Δ(QRCRR). THAP1 RR/AA and THAP1ΔQRCRR THAP1 mutants were then tested in the three THAP1/Par4 interaction assays (two-hybrid assay, in vitro THAP1/Par4 interaction assay, in vivo THAP1/Par4 interaction assay) as described above for the THAP1-C1, -C2, -C3, -N1, -N2 or -N3 mutants.

In the data set “human THAP1 (THanatos …)” the target is T8, human THAP1 (THanatos (death)-Associated Protein-1), full length (human, UniProt Q9NVV9 1-213).
T8 construct: also called hTHAP1; FLJ10477
T8 sequence: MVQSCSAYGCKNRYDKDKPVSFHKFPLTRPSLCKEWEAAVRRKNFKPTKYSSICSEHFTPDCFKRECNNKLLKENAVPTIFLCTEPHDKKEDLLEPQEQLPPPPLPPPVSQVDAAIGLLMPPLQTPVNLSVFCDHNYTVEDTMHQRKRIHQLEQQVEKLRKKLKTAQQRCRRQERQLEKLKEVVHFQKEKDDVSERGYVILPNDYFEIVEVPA
In words: yeast two-hybrid, both orientations (His/Ade selection). From the text: We then examined whether the leucine zipper/death domain at the C-terminus of Par4, previously shown to be involved in Par4 binding to WT-1 and aPKC, was required for the interaction between THAP1 and Par4. Two Par4 mutants were constructed for that purpose, Par4A and Par4DD. Par4A lacks the leucine zipper/death domain while Par4DD contains this domain. pGBKT7-Par4A(amino acids 1-276) and pGADT7-Par4A. were constructed by sub-cloning a EcoRI-BglII fragment from pGADT7-Par4 into the EcoRI and BamHI sites of pGBKT7 and pGADT7. Par4DD (amino acids 250-342) was amplified by PCR, using pGBKT7-Par4 as template, with primers Par4.4 (5′-[…]-3′) (SEQ ID NO: 193) and Par4.5, and cloned into the EcoRI and BamHI sites of pGBKT7 and pGADT7 to obtain pGBKT7-Par4DD and pGADT7-Par4DD. Two-hybrid interaction between THAP1 and Par4 mutants was tested by cotransformation of AH109 with pGBKT7-THAP1 and pGADT7-Par4A or pGADT7-Par4DD and selection of transformants by His and Ade double auxotrophy according to manufacturer's instructions ([…] two-hybrid system 3, Clontech). […] Similar results were obtained when two-hybrid experiments were performed in the opposite orientation using Par4 or Par4 mutants (Par4A and Par4DD) as baits instead of THAP1 (FIG. 3A).

For data set [8], the target named is T7, THAP1ΔQRCRR mutant (deletion of …). In words: in vitro THAP1/Par4 interaction assay (GST pull-down with GST-Par4DD). The protocol: (§2) THAP1 mutants were also tested in the in vitro THAP1/Par4 interaction assay. In vitro-translated THAP1 mutants were generated with the TNT-coupled reticulocyte lysate system (Promega, Madison, Wis., USA) using pGBKT7-THAP1-C1, -C2, -C3, -N1, -N2 or -N3 vector as template. 25 μl of each ³⁵S-labelled THAP1 mutant was incubated with immobilized GST or GST-Par4 protein overnight at 4° C., in the following binding buffer: 10 mM NaPO4 pH 8.0, 140 mM NaCl, 3 mM MgCl2, 1 mM dithiothreitol (DTT), 0.05% NP40, and 0.2 mM phenylmethyl sulphonyl fluoride (PMSF), 1 mM Na Vanadate, 50 mM β Glycerophosphate, 25 μg/ml chimotrypsine, 5 μg/ml aprotinin, 10 μg/ml Leupeptin. Beads were then washed 5 times in 1 ml binding buffer. Bound proteins were eluted with 2×Laemmli SDS-PAGE sample buffer, fractionated by 10% SDS-PAGE and visualized by fluorography using Amplify (Amersham Pharmacia Biotech). As expected, THAP1-C1, -C2, -C3, -and -N3 interacted with GST/Par4DD (FIG. 4B).
for mutant THAP1ΔQRCRR. The resulting PCR fragments were digested with EcoRI and BamHI, and cloned in frame downstream of the Gal4 Binding Domain (Gal4-BD) in pGBKT7 two-hybrid vector (Clontech) to generate pGBKT7-THAP1-RR/AA and −Δ(QRCRR), or downstream of the Enhanced Green Fluorescent Protein (EGFP) ORF in pEGFP.C2 vector (Clontech) to generate pEGFP.C2-THAP1-RR/AA and −Δ(QRCRR). […]

Data set [9] addresses T3, THAP1-N2 deletion mutant (amino acids …). In words: GST pull-down, immobilized GST-Par4DD, in vitro translated 35S-labelled mutant. The protocol: as §2
Data set [10] has as its target T4, THAP1-N1 deletion mutant (amino acids …). Described as above. The protocol: as §2
Another data set deals with T9, THAP1 THAP domain (Homo sapiens, UniProt Q9NVV9 SEQ:1-90).
T9 sequence: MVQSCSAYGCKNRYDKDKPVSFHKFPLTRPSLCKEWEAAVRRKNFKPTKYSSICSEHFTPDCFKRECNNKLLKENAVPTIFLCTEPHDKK
In words: EMSA; 20 mM Tris-HCl pH 7.5, 100 mM KCl, poly(dI-dC), room temperature; abrogated by 1,10-phenanthroline, restored by Zn; self-competed by 50-250x unlabelled probe. The conditions noted are these: tags: C-terminal His6 (pET-21c); label: 32P. The protocol: Binding reactions were carried out for 10 minutes at room temperature in 20 μl binding buffer (20 mM Tris-HCl pH 7.5, 100 mM KCl, 0.1% NP-40, 100 μg/ml BSA, 2.5 mM DTT, 5% glycerol, 200 ng poly (dI-dC)). Electrophoresis was performed on 8% (29:1) polyacrylamide gels containing 5% glycerol. Gels were run in 0.25×TBE at 150V and 4° C., dried and exposed on a phosphoimager screen (Molecular Dynamics). Sequences of wild type and mutant THRE oligonucleotides used in EMSA experiments were as follow (mutations are indicated in bold): wild-type probe 3, 5′-[…]-3′ (SEQ ID NO: 313); mutant probe 3mut1, 5′-[…]-3′ (SEQ ID NO: 314); mutant probe 3mut3, 5′-[…]-3′ (SEQ ID NO: 319); mutant probe 3mut4, 5′-[…]-3′ (SEQ ID NO: 320); mutant probe 3mut14, 5′-[…]-3′ (SEQ ID NO: 321); mutant probe 3mut5, 5′-[…]-3′ (SEQ ID NO: 322).
For competition experiments, 50-, 150-, and 250-fold molar excess of unlabelled wild-type (THRE competitor, probe 3) or mutant (non-specific competitor, probe 3mut1) THRE oligonucleotides were added to the reaction mixture just before the addition of the probe.
Since the THAP domain is characterized by a C2-CH conserved motif that may function as a Zn-binding site, we then determined whether DNA-binding activity of the THAP domain is Zn-dependent. […]
For orientation: Mobility shift assays separate free from complexed probe on a gel.

B1: Par4 leucine zipper/death domain (Par4DD, amino acids 250-342) (other)
chain: GFPRYNRDANVSGTLVSSSTLEKKIEDLEKEVVTERQENLRLVRLMQDKEEMIGKLKEEIDLLNRDLDDIEDENEQLKQENKTLLKVVGQLTR
notes: also called myc-Par4DD; mycPar4DD
B1: the binding result in data set [1] is “binds”; in data set [2], “binds”; in data set [3], “no binding”; in [4], “no binding”; in data set [5] it was “binds”; in data set [6], “binds”. In addition, the binding result is “no binding” in data set [7] and “binds” in the data set with human THAP1 (THanatos …).

B2: GST-Par4DD fusion protein (pGEX-2T-Par4DD, Par4 amino acids 250-342) (other)
chain: GFPRYNRDANVSGTLVSSSTLEKKIEDLEKEVVTERQENLRLVRLMQDKEEMIGKLKEEIDLLNRDLDDIEDENEQLKQENKTLLKVVGQLTR
notes: Expressed in E. coli DH5alpha and immobilized on glutathione sepharose; not shown: Glutathione S-transferase (GST) encoded by the pGEX-2T prokaryotic expression vector (Amersham Pharmacia Biotech); N-ter
Consider B2, for which the binding result in data set [8], in [9] and in data set [10] was “no binding” each time.

B3: wild-type THRE probe 3 (dsDNA)
DNA 1: AGCAAGTAAGGGCAAACTACTTCAT
DNA 2: ATGAAGTAGTTTGCCCTTACTTGCT
As to B3, the binding result with THAP1 THAP domain is listed as “binds”.

These data come from US20040224408A1, “THAP proteins as nuclear receptors for chemokines and roles in transcriptional regulation, cell proliferation and cell differentiation” (published 2004).
